Measured values: the supplement of paper PMC9112550, “Optimization of the antimicrobial peptide Bac7 by deep mutational scanning” (BMC Biology, 2022)

Tested on: Escherichia coli TOP10
Assay: shrunken log2 fold change of peptide-encoding DNA abundance (4.5 h post-induction vs induction); higher = less antimicrobial activity (less host growth inhibition)
Settings: time post-induction: 4.5 h; library: site-saturation at positions 5, 18, 19, 20
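Note: peptides expressed intracellularly from a pBAD plasmid library in pooled LB shake-flask culture, induced with 0.3% L-arabinose, DNA abundance read by NGS, three biological replicates, DESeq2 with apeglm shrinkage.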

In the case of RRIRKRPPRLPRPRPRPGVGPRP, the “shrunken log2 fold change” value is reported as 0.818.

With RRIRKRPPRLPRPRPRPGVHPRP the “shrunken log2 fold change” value was 0.195.

In the case of RRIRKRPPRLPRPRPRPGWQPRP, the “shrunken log2 fold change” value is reported as 0.347.

In the case of RRIRKRPPRLPRPRPRPGYRPRP, the “shrunken log2 fold change” value is reported as 0.129.

For RRIRKRPPRLPRPRPRPHDPPRP, the “shrunken log2 fold change” value was 0.282.

For RRIRKRPPRLPRPRPRPHEQPRP, the “shrunken log2 fold change” value was -0.00968.

With RRIRKRPPRLPRPRPRPHEVPRP the “shrunken log2 fold change” value was -0.00968.

With RRIRKRPPRLPRPRPRPHFMPRP the “shrunken log2 fold change” value was -0.171.

With RRIRKRPPRLPRPRPRPHGHPRP the “shrunken log2 fold change” value was -0.248.

With RRIRKRPPRLPRPRPRPHHVPRP the “shrunken log2 fold change” value was -0.348.

RRIRKRPPRLPRPRPRPHHYPRP was tested, and the “shrunken log2 fold change” value was -0.737.

In the case of RRIRKRPPRLPRPRPRPHILPRP, the “shrunken log2 fold change” value is reported as 0.0523.

For RRIRKRPPRLPRPRPRPHMGPRP, the “shrunken log2 fold change” value was -0.0935.

In the case of RRIRKRPPRLPRPRPRPHMIPRP, the “shrunken log2 fold change” value is reported as -0.335.

With RRIRKRPPRLPRPRPRPHNFPRP the “shrunken log2 fold change” value was -0.0511.

In the case of RRIRKRPPRLPRPRPRPHNLPRP, the “shrunken log2 fold change” value is reported as 0.0314.

With RRIRKRPPRLPRPRPRPHPVPRP the “shrunken log2 fold change” value was 0.185.

RRIRKRPPRLPRPRPRPHQEPRP was tested, and the “shrunken log2 fold change” value was 0.0459.

For RRIRKRPPRLPRPRPRPHQQPRP, the “shrunken log2 fold change” value was -0.0506.

For RRIRKRPPRLPRPRPRPHRGPRP, the “shrunken log2 fold change” value was 0.0594.

RRIRKRPPRLPRPRPRPHSYPRP was tested, and the “shrunken log2 fold change” value was 0.0421.

In the case of RRIRKRPPRLPRPRPRPHVLPRP, the “shrunken log2 fold change” value is reported as 0.0607.

With RRIRKRPPRLPRPRPRPHVQPRP the “shrunken log2 fold change” value was -0.0829.

With RRIRKRPPRLPRPRPRPHYTPRP the “shrunken log2 fold change” value was -0.395.

In the case of RRIRKRPPRLPRPRPRPIAQPRP, the “shrunken log2 fold change” value is reported as 0.208.

For RRIRKRPPRLPRPRPRPIATPRP, the “shrunken log2 fold change” value was -0.0616.

RRIRKRPPRLPRPRPRPICDPRP was tested, and the “shrunken log2 fold change” value was 0.0999.

For RRIRKRPPRLPRPRPRPICGPRP, the “shrunken log2 fold change” value was 0.0699.

In the case of RRIRKRPPRLPRPRPRPIFCPRP, the “shrunken log2 fold change” value is reported as 0.387.

In the case of RRIRKRPPRLPRPRPRPIFNPRP, the “shrunken log2 fold change” value is reported as -0.0554.

For RRIRKRPPRLPRPRPRPIGCPRP, the “shrunken log2 fold change” value was -0.000243.

With RRIRKRPPRLPRPRPRPIGWPRP the “shrunken log2 fold change” value was 0.7.

With RRIRKRPPRLPRPRPRPIKSPRP the “shrunken log2 fold change” value was 3.22.

For RRIRKRPPRLPRPRPRPILGPRP, the “shrunken log2 fold change” value was 0.00783.

For RRIRKRPPRLPRPRPRPILVPRP, the “shrunken log2 fold change” value was 0.0199.

With RRIRKRPPRLPRPRPRPIMSPRP the “shrunken log2 fold change” value was -0.00757.

With RRIRKRPPRLPRPRPRPINKPRP the “shrunken log2 fold change” value was -0.328.

For RRIRKRPPRLPRPRPRPINMPRP, the “shrunken log2 fold change” value was -0.196.

For RRIRKRPPRLPRPRPRPIPHPRP, the “shrunken log2 fold change” value was 0.359.

With RRIRKRPPRLPRPRPRPIPKPRP the “shrunken log2 fold change” value was 0.499.

RRIRKRPPRLPRPRPRPIPLPRP was tested, and the “shrunken log2 fold change” value was 0.0106.

RRIRKRPPRLPRPRPRPIPQPRP was tested, and the “shrunken log2 fold change” value was -0.184.

In the case of RRIRKRPPRLPRPRPRPIQHPRP, the “shrunken log2 fold change” value is reported as -0.311.

With RRIRKRPPRLPRPRPRPIQQPRP the “shrunken log2 fold change” value was 0.25.

With RRIRKRPPRLPRPRPRPIRMPRP the “shrunken log2 fold change” value was -0.0295.

In the case of RRIRKRPPRLPRPRPRPISDPRP, the “shrunken log2 fold change” value is reported as -0.0768.

With RRIRKRPPRLPRPRPRPISFPRP the “shrunken log2 fold change” value was -0.1.

With RRIRKRPPRLPRPRPRPISHPRP the “shrunken log2 fold change” value was 0.17.

With RRIRKRPPRLPRPRPRPISWPRP the “shrunken log2 fold change” value was -0.0574.

With RRIRKRPPRLPRPRPRPITEPRP the “shrunken log2 fold change” value was -0.147.

For RRIRKRPPRLPRPRPRPITRPRP, the “shrunken log2 fold change” value was 0.132.

With RRIRKRPPRLPRPRPRPITYPRP the “shrunken log2 fold change” value was -0.193.

In the case of RRIRKRPPRLPRPRPRPIVRPRP, the “shrunken log2 fold change” value is reported as -0.0167.

RRIRKRPPRLPRPRPRPIVYPRP was tested, and the “shrunken log2 fold change” value was -0.0564.

RRIRKRPPRLPRPRPRPKCWPRP was tested, and the “shrunken log2 fold change” value was 0.382.

RRIRKRPPRLPRPRPRPKEIPRP was tested, and the “shrunken log2 fold change” value was 0.00103.

For RRIRKRPPRLPRPRPRPKEQPRP, the “shrunken log2 fold change” value was -0.0322.

For RRIRKRPPRLPRPRPRPKEVPRP, the “shrunken log2 fold change” value was 0.0319.

In the case of RRIRKRPPRLPRPRPRPKFGPRP, the “shrunken log2 fold change” value is reported as 0.0786.

RRIRKRPPRLPRPRPRPKFTPRP was tested, and the “shrunken log2 fold change” value was 0.355.
